{
  "source": "patent US20070286806A1",
  "about": "“Methods and Compositions for Modulating a Steroid Receptor” (Mount Sinai Hospital, priority 2004, published 2007)",
  "molecules": {"B1": {"name": "polypyrimidine tract binding protein-associated splicing factor (protein)", "chain": "MSRDRFRSRGGGGGGFHRRGGGGGRGGLHDFRSPPPGMGLNQNRGPMGPGPGQSGPKPPIPPPPPHQQQQQPPPQQPPPQQPPPHQPPPHPQPHQQQQPPPPPQDSSKPVVAQGPGPAPGVGSAPPASSSAPPATPPTSGAPPGSGPGPTPTPPPAVTSAPPGAPPPTPPSSGVPTTPPQAGGPPPPPAAVPGPGPGPKQGPGPGGPKGGKMPGGPKPGGGPGLSTPGGHPKPPHRGGGEPRGGRQHHPPYHQQHHQGPPPGGPGGRSEEKISDSEGFKANLSLLRRPGEKTYTQRCRLFVGNLPADITEDEFKRLFAKYGEPGEVFINKGKGFGFIKLESRALAEIAKAELDDTPMRGRQLRVRFATHAAALSVRNLSPYVSNELLEEAFSQFGPIERAVVIVDDRGRSTGKGIVEFASKPAARKAFERCSEGVFLLTTTPRPVIVEPLEQLDDEDGLPEKLAQKNPMYQKERETPPRFAQHGTFEYEYSQRWKSLDEMEKQQREQVEKNMKDAKDKLESEMEDAYHEHQANLLRQDLMRRQEELRRMEELHNQEMQKRKEMQLRQEEERRRREEEMMIRQREMEEQMRRQREESYSRMGYMDPRERDMRMGGGGAMNMGDPYGSGGQKFPPLGGGGGIGYEANPGVPPATMSGSMMGSDMRTERFGQGGAGPVGGQGPRGMGPGTPAGYGRGREEYEGPNKKPRF", "notes": "expressed from transfected His-PSF vector or in vitro translated"}},
  "key": {"PR protein": {"system": "PR protein", "test": "PR protein levels on over-expression of PSF in 293T cells", "type": "cell-based", "conditions": "over-expression in 293T cells"}, "glucocorticoid receptor": {"target": "T1, glucocorticoid receptor (Mesocricetus auratus, UniProt A0A1U8BQ22)", "T1 construct": "endogenous in cells; host or cells: SHM (Syrian hamster myocyte) cells", "T1 sequence (A0A1U8BQ22 1-774)": "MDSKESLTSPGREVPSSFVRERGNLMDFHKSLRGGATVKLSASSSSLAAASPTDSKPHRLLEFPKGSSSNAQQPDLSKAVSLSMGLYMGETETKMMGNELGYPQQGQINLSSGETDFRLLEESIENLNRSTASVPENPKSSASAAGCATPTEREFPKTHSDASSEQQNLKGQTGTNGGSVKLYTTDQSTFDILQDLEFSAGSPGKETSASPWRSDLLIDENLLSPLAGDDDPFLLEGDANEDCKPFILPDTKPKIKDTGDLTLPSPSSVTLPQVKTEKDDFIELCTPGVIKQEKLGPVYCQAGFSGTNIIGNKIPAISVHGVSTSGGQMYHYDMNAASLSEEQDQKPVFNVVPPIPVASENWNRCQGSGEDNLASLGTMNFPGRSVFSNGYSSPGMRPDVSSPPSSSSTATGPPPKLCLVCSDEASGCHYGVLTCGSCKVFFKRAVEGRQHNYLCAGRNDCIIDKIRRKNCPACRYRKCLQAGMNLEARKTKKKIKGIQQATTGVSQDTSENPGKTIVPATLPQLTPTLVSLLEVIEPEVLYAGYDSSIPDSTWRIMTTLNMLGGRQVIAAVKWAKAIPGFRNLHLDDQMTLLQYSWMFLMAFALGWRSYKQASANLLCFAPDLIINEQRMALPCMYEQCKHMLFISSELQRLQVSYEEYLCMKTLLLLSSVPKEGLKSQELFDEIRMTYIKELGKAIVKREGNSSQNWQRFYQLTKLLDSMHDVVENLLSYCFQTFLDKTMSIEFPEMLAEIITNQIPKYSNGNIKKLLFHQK", "test": "Glucocorticoid receptor transactivation in SHM cells, MMTV-Luc reporter", "type": "cell-based", "conditions": "1 nM Dex", "procedure": "Hamster smooth muscle cells (SHM) were transiently transfected with PSF-A expression vector together with a MMTV-Luc reporter vector. Cells were treated with either vehicle or 1 nM Dex for at least 24 hours. Luciferase activities were measured and normalized by β-galactosidase acitvity. Data shown in FIG. 13 are the mean of three separate experiments performed in triplicate ±S.E. Note: the empty vector pcDNA3 was added to the DNA mixture to ensure that the amounts of CMV promoter in all the transfection assays are equal."}, "PR [1]": {"target": "T2, PR (Homo sapiens, UniProt P06401)", "T2 construct": "made in house; host or cells: E. coli BL21(DE3)pLysS (GST-PR); rabbit reticulocyte lysate (35S His-PSF)", "T2 sequence (P06401 556-650)": "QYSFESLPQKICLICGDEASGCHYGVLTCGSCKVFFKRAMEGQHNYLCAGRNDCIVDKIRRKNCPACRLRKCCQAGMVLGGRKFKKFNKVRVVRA", "test": "GST in vitro pulldown assay with 35S-labeled PSF and GST-PR fusion proteins", "type": "binding", "conditions": "35S-labeled PSF", "procedure": "(§1) FIG. 3. Mapping PSF and PR interaction site. (A) GST or GST-PR fusion proteins bound to glutathione-sepharose beads were incubated with ^35S-labeled PSF and binding of PSF was assessed by autoradiography. (B) GST or GST-PSF fusion proteins bound to glutathione-sepharose beads were incubated with ^35S-labeled PRB and binding of PRB was assessed by autoradiography. Input represents 10% of the material used for each sample in A and B. (C) GST-PSF fusion proteins used in assay B were separated on SDS gel and stained with commassie blue.\n(§2) For immunoprecipitation of the endogenous PR and PSF, T47D cells cultured in 150 mm dishes were lysed in 800 μl NETN buffer containing 150 mM NaCl plus protease inhibitor cocktail. Cell lysate were then incubated with 5 μg of PR or PSF, or control mouse IgG at 4° C. overnight, followed by the addition of 30 μl of protein A/G PLUS-agarose beads (Santa Cruz) for another two hours at 4° C. Resins were washed with NETN containing 250 mM NaCl and eluted with 1×Laemmli buffer. […] Gels were treated with Enhancer (NEN, Boston, US) dried and analyzed by autoradiography. • Cell culture and transient transfection: SHM cells and 293T cells were maintained in DMEM plus 5% FCS (Sigma) as described before (22). […] Luciferase activity was determined by using the luciferin reagent (Promega) according to manufacture's protocol. […]"}, "PR [2]": {"system": "PR", "test": "GST in vitro pulldown assay with 35S-labeled PSF and GST-PR fusion proteins", "type": "binding", "conditions": "35S-labeled PSF", "procedure": "as §1, §2"}},
  "data": [
    {"molecule": "B1", "values": [
      {"measurement": "PR protein levels", "setting": "PR protein", "result": "reduced PR protein levels"},
      {"measurement": "glucocorticoid receptor activation of the MMTV promoter", "setting": "glucocorticoid receptor", "result": "blocks its activation of the MMTV promoter"},
      {"measurement": "binding to GST-PR fusion proteins containing the DBD domain", "setting": "PR [1]", "result": "bound strongly"},
      {"measurement": "binding to other segments of PR", "setting": "PR [2]", "result": "did not bind"}
    ]}
  ]
}
